Measurements as given in patent publication US20240360228A1 (BIOLEGEND, published 2024).

Experiments:
human CCR8 [1] = biological target: T1, human CCR8 (human, UniProt P51685 1-355); test: flow blocking, PBMC CCR8+CD4+; competitor PE-AB15
T1 construct: Native CCR8 on human PBMC (CCR8+ CD3+ or CCR8+ CD4+ lymphocytes); also called chemokine (C-C motif) receptor 8
How it was run: (§1)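 Competition by flow cytometry: 10 μg unlabeled antibody preblock, then 0.25 μg PE-competitor with T-cell marker for 15 min. MFI gated on CCR8+ CD4+ or CD3+ cells; 100 − percent of isotype MFI.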

human CCR8 [2] = biological target: T1, human CCR8; test: flow blocking, PBMC CCR8+CD4+; competitor PE-AB12
How it was run: as §1

human CCR8 [3] = biological target: T1, human CCR8; test: flow blocking, PBMC CCR8+CD4+; competitor PE-AB5
How it was run: as §1

human CCR8 [4] = biological target: T1, human CCR8; test: flow blocking, PBMC CCR8+CD3+; competitor PE-AB12
Method: (§2) For blocking studies, 100 μL of the cell suspension were incubated with 10 μg purified isotype control, AB1, AB2, AB3, AB4, AB5, AB8, AB9, AB10, AB11, AB12, AB13, AB14, AB15, and Commercial ABI antibodies, or isotype control, as blocking agents.
(§3) After incubation with the blocking agent, the cells were incubated with 0.25 μg of the indicated PE-conjugated antibody plus anti-human CD4 APC or anti-human CD3 for another 15 minutes in the dark and then washed 2 times with Cell Staining Buffer, and acquired in a FACSCanto II flow cytometer (BD Biosciences); the data was analyzed using FCS Express (De Novo Software); MFI correspond to the CCR8+ CD4+ lymphocytes or CCR8+ CD3+ lymphocytes.
(§4) Percentage original MFI was calculated by dividing the MFI of samples blocked with AB1, AB2, AB3, AB4, AB5, AB6, AB7, AB8, AB9, AB10, AB11, AB12, AB13, AB14, AB15, and Commercial ABI antibodies, by the MFI of samples blocked with the corresponding isotype control. This value was subtracted from 100 to get a blocking percentage. The formula is shown below: […]

human CCR8 [5] = biological target: T1, human CCR8; test: flow blocking, PBMC CCR8+CD3+; competitor PE-AB15
Method: as §2, §3, §4

human CCR8 [6] = biological target: T1, human CCR8; test: flow blocking, PBMC CCR8+CD3+; competitor PE-AB14
Method: as §2, §3, §4

human CCR8 [7] = biological target: T1, human CCR8; test: flow blocking, PBMC CCR8+CD4+; competitor PE-AB3
How it was run: as §1

human CCR8 [8] = biological target: T1, human CCR8; test: flow blocking, PBMC CCR8+CD3+; competitor PE-AB10
Method: as §2, §3, §4

human CCR8 [9] = biological target: T1, human CCR8; test: flow blocking, PBMC CCR8+CD3+; competitor PE-AB7
Method: as §2, §3, §4

human CCR8 [10] = biological target: T1, human CCR8; test: flow blocking, PBMC CCR8+CD4+; competitor PE-AB2
How it was run: as §1

human CCR8 [11] = biological target: T1, human CCR8; test: flow blocking, PBMC CCR8+CD4+; competitor PE-AB10
How it was run: as §1

human CCR8 [12] = biological target: T1, human CCR8; test: flow blocking, PBMC CCR8+CD3+; competitor PE-AB13
Method: as §2, §3, §4

human CCR8 [13] = biological target: T1, human CCR8; test: flow blocking, PBMC CCR8+CD4+; competitor PE-AB14
How it was run: (§5)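 Human PBMC (100 μL suspension) were pre-blocked with 10 μg of each unlabelled anti-CCR8 antibody or isotype control. Cells were then stained 15 min in the dark with 0.25 μg of the PE-conjugated competitor antibody plus anti-CD4 or anti-CD3. Read-out by flow cytometry as MFI on CCR8+CD4+ or CCR8+CD3+ lymphocytes.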

human CCR8 [14] = biological target: T1, human CCR8; test: flow blocking, PBMC CCR8+CD4+; competitor PE-AB13
How it was run: as §5

human CCR8 [15] = biological target: T1, human CCR8; test: flow blocking, PBMC CCR8+CD4+; competitor PE-433H
How it was run: as §5

human CCR8 [16] = biological target: T1, human CCR8; test: flow blocking, PBMC CCR8+CD3+; competitor PE-AB8
Method: as §2, §3, §4

human CCR8 [17] = biological target: T1, human CCR8; test: flow blocking, PBMC CCR8+CD4+; competitor PE-AB1
How it was run: as §1

human CCR8 [18] = biological target: T1, human CCR8; test: flow blocking, PBMC CCR8+CD3+; competitor PE-433H
Method: as §2, §3, §4

human CCR8 [19] = biological target: T1, human CCR8; test: flow blocking, PBMC CCR8+CD3+; competitor PE-AB11
Method: as §2, §3, §4

human CCR8 [20] = biological target: T1, human CCR8; test: flow blocking, PBMC CCR8+CD3+; competitor PE-L263G8
Method: as §2, §3, §4

human CCR8 [21] = biological target: T1, human CCR8; test: flow blocking, PBMC CCR8+CD3+; competitor PE-AB6
Method: as §2, §3, §4

human CCR8 [22] = biological target: T1, human CCR8; test: flow blocking, PBMC CCR8+CD4+; competitor PE-AB11
How it was run: as §1

human CCR8 [23] = biological target: T1, human CCR8; test: flow blocking, PBMC CCR8+CD4+; competitor PE-AB6
human CCR8 [24] = biological target: T1, human CCR8; test: flow blocking, PBMC CCR8+CD4+; competitor PE-AB4
How it was run: as §1

human CCR8 [25] = biological target: T1, human CCR8; test: flow blocking, PBMC CCR8+CD3+; competitor PE-AB5
Method: as §2, §3, §4

T1 sequence (P51685 whole entry): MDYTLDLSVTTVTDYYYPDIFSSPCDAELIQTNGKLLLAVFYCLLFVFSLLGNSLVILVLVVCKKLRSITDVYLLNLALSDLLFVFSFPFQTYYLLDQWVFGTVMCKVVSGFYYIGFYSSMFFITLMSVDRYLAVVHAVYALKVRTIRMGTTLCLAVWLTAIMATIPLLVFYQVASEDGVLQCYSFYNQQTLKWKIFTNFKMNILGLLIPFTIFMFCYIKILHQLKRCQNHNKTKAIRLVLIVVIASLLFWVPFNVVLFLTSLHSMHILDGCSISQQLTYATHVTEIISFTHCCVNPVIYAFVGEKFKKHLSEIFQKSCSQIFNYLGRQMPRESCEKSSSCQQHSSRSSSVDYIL

B1: AB10 (antibody, V domains shown)
VH: EVQLVETGGGLVQPKGSLKLSCAVSGFTFKTNAMNWVRQAPGKGLEWVARIRSKSNKYATYYADSVKDRFTISRDDSQSMLYLQMNNLKTEDTAMYYCVRGSEMGYYYAMDYWGQGTSVTVSS
VL: DIVMTQAAPSVPVTPGESVSISCRSSKSLLHSNGNTYLYWFLQRPGQSPQLLIYRMSNLASGVPDRFSGSGSGTAFTLRISRVEAEDVGVYYCMQHLEYPFTFGGGTKLEIK
notes: Hybridoma monoclonal; also called antibody 10; clone 10
In the case of B1, the “% Blocking” value (human CCR8 [1]) is reported as 88.4%, the “% Positive cells” value (human CCR8 [1]) is reported as 0.15% and the “% Blocking” value (human CCR8 [2]) is reported as 98.9%. For the same binder, the “% Positive cells” value (human CCR8 [2]) was 0.02%, the “% Blocking” value (human CCR8 [3]) was -17.8% and the “% Positive cells” value (human CCR8 [3]) was 2.38%. For the same binder, the “% Blocking” value (human CCR8 [4]) was 47.6%, the MFI (human CCR8 [4]) was 536 and the “% Blocking” value (human CCR8 [5]) was 43.3%. The MFI (human CCR8 [5]) was 487, the “% Blocking” value (human CCR8 [6]) was 38.9% and the MFI (human CCR8 [6]) was 528. For the same binder, the “% Blocking” value (human CCR8 [7]) was -50.9%, the “% Positive cells” value (human CCR8 [7]) was 2.58% and the “% Blocking” value (human CCR8 [8]) was 30.7%. The MFI (human CCR8 [8]) was 552, the “% Blocking” value (human CCR8 [9]) was 52.1% and the MFI (human CCR8 [9]) was 559. For the same binder, the “% Blocking” value (human CCR8 [10]) was -40.2%, the “% Positive cells” value (human CCR8 [10]) was 2.3% and the “% Blocking” value (human CCR8 [11]) was 93.2%. The “% Positive cells” value (human CCR8 [11]) was 0.1%, the “% Blocking” value (human CCR8 [12]) was 43.6% and the MFI (human CCR8 [12]) was 499. For the same binder, the “% Blocking” value (human CCR8 [13]) was 89.2%, the “% Positive cells” value (human CCR8 [13]) was 0.14% and the “% Blocking” value (human CCR8 [14]) was 97.5%. The “% Positive cells” value (human CCR8 [14]) was 0.05%, the “% Blocking” value (human CCR8 [15]) was 28.4% and the “% Positive cells” value (human CCR8 [15]) was 1.26%. The “% Blocking” value (human CCR8 [16]) was 51.6%, the MFI (human CCR8 [16]) was 575 and the “% Blocking” value (human CCR8 [17]) was -47.1%. The “% Positive cells” value (human CCR8 [17]) was 2.28%, the “% Blocking” value (human CCR8 [18]) was 32.1% and the MFI (human CCR8 [18]) was 602. The “% Blocking” value (human CCR8 [19]) was 55.2%, the MFI (human CCR8 [19]) was 416 and the “% Blocking” value (human CCR8 [20]) was 10.2%. For the same binder, the MFI (human CCR8 [20]) was 605, the “% Blocking” value (human CCR8 [21]) was -27% and the MFI (human CCR8 [21]) was 1170. The “% Blocking” value (human CCR8 [22]) was 98.5%, the “% Positive cells” value (human CCR8 [22]) was 0.03% and the “% Blocking” value (human CCR8 [23]) was -7.92%. The “% Positive cells” value (human CCR8 [23]) was 2.18%, the “% Blocking” value (human CCR8 [24]) was -38.8% and the “% Positive cells” value (human CCR8 [24]) was 2.47%. For the same binder, the “% Blocking” value (human CCR8 [25]) was -8.37% and the MFI (human CCR8 [25]) was 1070.

B2: AB11 (antibody, V domains shown)
VH: EVQLVESGGGLVQPKGSLKLSCAASGFAFNTYAMNWVRQAPGKGLEWIARLRSKSNFYATYYADSVKDRFTISRDDSQSMLYLQMNNLKTEDTAVYYCVRGRELGPSYAMDYWGQGTSVTVSS
VL: DIVMTQAAPSVPVTPGESVSISCRSSKSLLHSNGNTYLYWFLQRPGQSPQLLIYRMSNLASGVPDRFSGSGSGTAFTLRISRVEAEDVGVYYCMQHLEYPYTFGGGTKLEIK
notes: Hybridoma monoclonal; also called antibody 11; clone 11
For B2, the “% Blocking” value (human CCR8 [1]) was 93.8%, the “% Positive cells” value (human CCR8 [1]) was 0.08% and the “% Blocking” value (human CCR8 [2]) was 98.3%. The “% Positive cells” value (human CCR8 [2]) was 0.03%, the “% Blocking” value (human CCR8 [3]) was -27.7% and the “% Positive cells” value (human CCR8 [3]) was 2.58%. For the same binder, the “% Blocking” value (human CCR8 [4]) was 48%, the MFI (human CCR8 [4]) was 531 and the “% Blocking” value (human CCR8 [5]) was 52%. For the same binder, the MFI (human CCR8 [5]) was 412, the “% Blocking” value (human CCR8 [6]) was 41.4% and the MFI (human CCR8 [6]) was 506. The “% Blocking” value (human CCR8 [7]) was -26.3%, the “% Positive cells” value (human CCR8 [7]) was 2.16% and the “% Blocking” value (human CCR8 [8]) was 34.4%. The MFI (human CCR8 [8]) was 522, the “% Blocking” value (human CCR8 [9]) was 13.1% and the MFI (human CCR8 [9]) was 1020. The “% Blocking” value (human CCR8 [10]) was -22.6%, the “% Positive cells” value (human CCR8 [10]) was 2.01% and the “% Blocking” value (human CCR8 [11]) was -2.7%. For the same binder, the “% Positive cells” value (human CCR8 [11]) was 1.52%, the “% Blocking” value (human CCR8 [12]) was 34.6% and the MFI (human CCR8 [12]) was 579. For the same binder, the “% Blocking” value (human CCR8 [13]) was 99.2%, the “% Positive cells” value (human CCR8 [13]) was 0.01% and the “% Blocking” value (human CCR8 [14]) was 96.5%. The “% Positive cells” value (human CCR8 [14]) was 0.07%, the “% Blocking” value (human CCR8 [15]) was 38.6% and the “% Positive cells” value (human CCR8 [15]) was 1.08%. The “% Blocking” value (human CCR8 [16]) was 17.8%, the MFI (human CCR8 [16]) was 977 and the “% Blocking” value (human CCR8 [17]) was -31.6%. The “% Positive cells” value (human CCR8 [17]) was 2.04%, the “% Blocking” value (human CCR8 [18]) was 43.3% and the MFI (human CCR8 [18]) was 503. For the same binder, the “% Blocking” value (human CCR8 [19]) was 42.7%, the MFI (human CCR8 [19]) was 532 and the “% Blocking” value (human CCR8 [20]) was 36.6%. For the same binder, the MFI (human CCR8 [20]) was 427, the “% Blocking” value (human CCR8 [21]) was -8.93% and the MFI (human CCR8 [21]) was 1010. For the same binder, the “% Blocking” value (human CCR8 [22]) was 96.9%, the “% Positive cells” value (human CCR8 [22]) was 0.06% and the “% Blocking” value (human CCR8 [23]) was -5.45%. For the same binder, the “% Positive cells” value (human CCR8 [23]) was 2.13%, the “% Blocking” value (human CCR8 [24]) was -27% and the “% Positive cells” value (human CCR8 [24]) was 2.26%. The “% Blocking” value (human CCR8 [25]) was -2.94% and the MFI (human CCR8 [25]) was 1020.
